Measurements as given in US20250163127A1.
Changes are numbered by the printed parent chain. Names and notes keep the numbering of the source.

Experiments:
human PD-1 (human) = human PD-1 (human) (UniProt Q15116)
CD28 (human) = CD28 (human) (UniProt P10747); assay: flow cytometry, Jurkat cells (CD28)
CTLA4 (human) = assay: flow cytometry, CHO cells stably expressing CTLA4
PD-L1 (human) = assay: flow cytometry, CHO cells stably expressing PD-L1
PD-L1 (human), sequence (chain, as listed by the source): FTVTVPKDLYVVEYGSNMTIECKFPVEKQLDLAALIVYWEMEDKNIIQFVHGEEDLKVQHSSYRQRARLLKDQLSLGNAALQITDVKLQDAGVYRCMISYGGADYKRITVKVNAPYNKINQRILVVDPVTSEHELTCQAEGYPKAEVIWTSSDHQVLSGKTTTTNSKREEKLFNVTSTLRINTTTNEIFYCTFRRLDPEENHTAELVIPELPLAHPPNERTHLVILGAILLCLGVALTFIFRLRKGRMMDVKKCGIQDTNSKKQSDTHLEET

CTLA4 (human), sequence (chain, as listed by the source): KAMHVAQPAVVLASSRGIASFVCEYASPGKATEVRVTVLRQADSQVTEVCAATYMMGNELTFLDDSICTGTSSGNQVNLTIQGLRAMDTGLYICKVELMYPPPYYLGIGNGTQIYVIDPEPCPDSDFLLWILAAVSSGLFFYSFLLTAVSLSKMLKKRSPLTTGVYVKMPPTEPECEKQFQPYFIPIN
human PD-1 (human), sequence (Q15116 25-288): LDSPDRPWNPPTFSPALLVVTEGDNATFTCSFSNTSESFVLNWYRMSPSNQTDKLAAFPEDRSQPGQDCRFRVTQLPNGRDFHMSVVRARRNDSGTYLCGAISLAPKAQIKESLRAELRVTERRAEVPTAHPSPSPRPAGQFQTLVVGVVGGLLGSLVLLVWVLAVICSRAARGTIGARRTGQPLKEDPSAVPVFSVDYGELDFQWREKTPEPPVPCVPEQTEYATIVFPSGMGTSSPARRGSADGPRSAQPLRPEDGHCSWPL

B1: variant PD-L2 IgV Q82R/V89D Fc fusion (Fc fusion)
chain: LFTVTVPKELYIIEHGSNVTLECNFDTGSHVNLGAITASLQKVENDTSPHRERATLLEEQLPLGKASFHIPQVQVRDEGQYRCIIIYGDAWDYKYLTLKVKA
IFN gamma levels pg/mL (MLR) (human PD-1 (human)): 1620 pg/mL

B2: variant PD-L2 IgV I13V/Q72H/R76G/I86T Fc fusion (Fc fusion)
chain: B1 chain with I13V, Q72H, R76G, R82Q, I86T, D89V
IFN gamma levels pg/mL (MLR) (human PD-1 (human)): 1950 pg/mL

B3: variant PD-L2 IgV S67L/I86T Fc fusion (Fc fusion)
chain: B1 chain with S67L, R82Q, I86T, D89V
IFN gamma levels pg/mL (MLR) (human PD-1 (human)): 1020 pg/mL

B4: variant PD-L2 IgV I13V/S67L/V89D Fc fusion (Fc fusion)
chain: B1 chain with I13V, S67L, R82Q
IFN gamma levels pg/mL (MLR) (human PD-1 (human)): 868 pg/mL

B5: variant PD-L2 IgV E59G/Q82R Fc fusion (Fc fusion)
chain: B1 chain with E59G, D89V
IFN gamma levels pg/mL (MLR) (human PD-1 (human)): 1510 pg/mL

B6: variant PD-L2 IgV H15Q/T47A/Q72H/R76G Fc fusion (Fc fusion)
chain: B1 chain with H15Q, T47A, Q72H, R76G, R82Q, D89V
IFN gamma levels pg/mL (MLR) (human PD-1 (human)): 1460 pg/mL

B7: variant PD-L2 IgV S39I/V89D Fc fusion (Fc fusion)
chain: B1 chain with S39I, R82Q
IFN gamma levels pg/mL (MLR) (human PD-1 (human)): 1310 pg/mL

B8: variant PD-L2 IgV H15Q/S39I/I86T Fc fusion (Fc fusion)
chain: B1 chain with H15Q, S39I, R82Q, I86T, D89V
IFN gamma levels pg/mL (MLR) (human PD-1 (human)): 1420 pg/mL

B9: variant PD-L2 IgV S67L/V89D Fc fusion (Fc fusion)
chain: B1 chain with S67L, R82Q
IFN gamma levels pg/mL (MLR) (human PD-1 (human)): 1230 pg/mL

B10: variant PD-L2 IgV I13V/S39I/E44D/Q82R/V89D Fc fusion (Fc fusion)
chain: B1 chain with I13V, S39I, E44D
IFN gamma levels pg/mL (MLR) (human PD-1 (human)): 936 pg/mL

B11: variant PD-L2 IgV I13V/H15Q/E44D/V89D Fc fusion (Fc fusion)
chain: B1 chain with I13V, H15Q, E44D, R82Q
IFN gamma levels pg/mL (MLR) (human PD-1 (human)): 1380 pg/mL

B12: variant PD-L2 IgV H15Q/S67L/R76G Fc fusion (Fc fusion)
chain: B1 chain with H15Q, S67L, R76G, R82Q, D89V
IFN gamma levels pg/mL (MLR) (human PD-1 (human)): 1430 pg/mL

B13: variant PD-L2 IgV H15Q/S67L/I86T Fc fusion (Fc fusion)
chain: B1 chain with H15Q, S67L, R82Q, I86T, D89V
IFN gamma levels pg/mL (MLR) (human PD-1 (human)): 1030 pg/mL

B14: variant PD-L2 IgV H15Q/E44D/R76G/I85F Fc fusion (Fc fusion)
chain: B1 chain with H15Q, E44D, R76G, R82Q, I85F, D89V
IFN gamma levels pg/mL (MLR) (human PD-1 (human)): 1390 pg/mL

B15: variant PD-L2 IgV H15Q/N32D/S67L/V89D Fc fusion (Fc fusion)
chain: B1 chain with H15Q, N32D, S67L, R82Q
IFN gamma levels pg/mL (MLR) (human PD-1 (human)): 1290 pg/mL

B16: variant PD-L2 IgV H15Q/R76G/I85F Fc fusion (Fc fusion)
chain: B1 chain with H15Q, R76G, R82Q, I85F, D89V
IFN gamma levels pg/mL (MLR) (human PD-1 (human)): 1730 pg/mL

B17: variant PD-L2 IgV N32D/S67L/V89D Fc fusion (Fc fusion)
chain: B1 chain with N32D, S67L, R82Q
IFN gamma levels pg/mL (MLR) (human PD-1 (human)): 1190 pg/mL

B18: variant PD-L2 IgV H15Q/S39I/S67L/V89D Fc fusion (Fc fusion)
chain: B1 chain with H15Q, S39I, S67L, R82Q
IFN gamma levels pg/mL (MLR) (human PD-1 (human)): 1230 pg/mL

B19: variant PD-L2 IgV H15Q/C23S/I86T Fc fusion (Fc fusion)
chain: B1 chain with H15Q, C23S, R82Q, I86T, D89V
IFN gamma levels pg/mL (MLR) (human PD-1 (human)): 1850 pg/mL

B20: variant PD-L2 IgV E44D/V89D/W91R Fc fusion (Fc fusion)
chain: B1 chain with E44D, R82Q, W91R
IFN gamma levels pg/mL (MLR) (human PD-1 (human)): 1560 pg/mL

B21: variant PD-L2 IgV I13V/H15Q/T47A/Q72H/R76G Fc fusion (Fc fusion)
chain: B1 chain with I13V, H15Q, T47A, Q72H, R76G, R82Q, D89V
IFN gamma levels pg/mL (MLR) (human PD-1 (human)): 1470 pg/mL

B22: variant PD-L2 IgV H15Q/T47A/Q82R Fc fusion (Fc fusion)
chain: B1 chain with H15Q, T47A, D89V
IFN gamma levels pg/mL (MLR) (human PD-1 (human)): 1320 pg/mL

B23: CD80 variant V22A/E35D/V68E/A71D IgV-Fc (Fc fusion)
chain: VIHVTKEVKEVATLSCGHNVSAEELAQTRIYWQKDKKMVLTMMSGDMNIWPEYKNRTIFDITNNLSIEILDLRPSDEGTYECVVLKYEKDAFKREHLAEVT
Fold change to WT (CD28 (human)): 1.83 fold
MFI at 33.3 nM (CD28 (human)): 14000 MFI
Fold change to WT CD80 (CTLA4 (human)): 2.45 fold
MFI at 33.3 nM (CTLA4 (human)): 437000 MFI
Fold change to WT (PD-L1 (human)): 0.17 fold
MFI at 33.3 nM (PD-L1 (human)): 1350 MFI

B24: CD80 variant H18Y/E35D/V68M/L97Q IgV-Fc (Fc fusion)
chain: B23 chain with H18Y, A22V, E68M, D71A, L97Q
Fold change to WT (CD28 (human)): 0.04 fold
MFI at 33.3 nM (CD28 (human)): 299 MFI
Fold change to WT CD80 (CTLA4 (human)): 0.97 fold
MFI at 33.3 nM (CTLA4 (human)): 173000 MFI
Fold change to WT (PD-L1 (human)): 15.3 fold
MFI at 33.3 nM (PD-L1 (human)): 122000 MFI

B25: CD80 variant Q33L/E35D/M47L/V68M/L85Q/E88D IgV-Fc (Fc fusion)
chain: B23 chain with A22V, Q33L, M47L, E68M, D71A, L85Q, E88D
Fold change to WT (CD28 (human)): 0.03 fold
MFI at 33.3 nM (CD28 (human)): 264 MFI
Fold change to WT CD80 (CTLA4 (human)): 0.02 fold
MFI at 33.3 nM (CTLA4 (human)): 3530 MFI
Fold change to WT (PD-L1 (human)): 15.8 fold
MFI at 33.3 nM (PD-L1 (human)): 126000 MFI

B26: CD80 variant H18Y/Y31H/E35D/M47V/A71G/L85Q IgV-Fc (Fc fusion)
chain: B23 chain with H18Y, A22V, Y31H, M47V, E68V, D71G, L85Q
Fold change to WT (CD28 (human)): 0.04 fold
MFI at 33.3 nM (CD28 (human)): 268 MFI
Fold change to WT CD80 (CTLA4 (human)): 0.02 fold
MFI at 33.3 nM (CTLA4 (human)): 3840 MFI
Fold change to WT (PD-L1 (human)): 9.61 fold
MFI at 33.3 nM (PD-L1 (human)): 76400 MFI

B27: CD80 variant Q33L/E35D/M47L/A71G/F92S IgV-Fc (Fc fusion)
chain: B23 chain with A22V, Q33L, M47L, E68V, D71G, F92S
Fold change to WT (CD28 (human)): 0.05 fold
MFI at 33.3 nM (CD28 (human)): 366 MFI
Fold change to WT CD80 (CTLA4 (human)): 0.01 fold
MFI at 33.3 nM (CTLA4 (human)): 2110 MFI
Fold change to WT (PD-L1 (human)): 3.53 fold
MFI at 33.3 nM (PD-L1 (human)): 28000 MFI

B28: CD80 variant Q33L/E35D/N48K/L85Q/L97Q IgV-Fc (Fc fusion)
chain: B23 chain with A22V, Q33L, N48K, E68V, D71A, L85Q, L97Q
Fold change to WT (CD28 (human)): 0.04 fold
MFI at 33.3 nM (CD28 (human)): 279 MFI
Fold change to WT CD80 (CTLA4 (human)): 0.01 fold
MFI at 33.3 nM (CTLA4 (human)): 1180 MFI
Fold change to WT (PD-L1 (human)): 5.69 fold
MFI at 33.3 nM (PD-L1 (human)): 45200 MFI

B29: CD80 variant E35D/D46E/M47V/L97Q IgV-Fc (Fc fusion)
chain: B23 chain with A22V, D46E, M47V, E68V, D71A, L97Q
Fold change to WT (CD28 (human)): 0.05 fold
MFI at 33.3 nM (CD28 (human)): 371 MFI
Fold change to WT CD80 (CTLA4 (human)): 1.71 fold
MFI at 33.3 nM (CTLA4 (human)): 305000 MFI
Fold change to WT (PD-L1 (human)): 2.45 fold
MFI at 33.3 nM (PD-L1 (human)): 19500 MFI

B30: CD80 variant E35D/M47V/A71G/L85M/L97Q IgV-Fc (Fc fusion)
chain: B23 chain with A22V, M47V, E68V, D71G, L85M, L97Q
Fold change to WT (CD28 (human)): 0.04 fold
MFI at 33.3 nM (CD28 (human)): 339 MFI
Fold change to WT CD80 (CTLA4 (human)): 1.34 fold
MFI at 33.3 nM (CTLA4 (human)): 239000 MFI
Fold change to WT (PD-L1 (human)): 7.77 fold
MFI at 33.3 nM (PD-L1 (human)): 61700 MFI

B31: CD80 variant V22A/R29H/E35D/D46E/M47I IgV-Fc (Fc fusion)
chain: B23 chain with R29H, D46E, M47I, E68V, D71A
Fold change to WT (CD28 (human)): 0.04 fold
MFI at 33.3 nM (CD28 (human)): 323 MFI
Fold change to WT CD80 (CTLA4 (human)): 0.43 fold
MFI at 33.3 nM (CTLA4 (human)): 77400 MFI
Fold change to WT (PD-L1 (human)): 3.2 fold
MFI at 33.3 nM (PD-L1 (human)): 25400 MFI

B32: CD80 variant Q33L/E35D/M43V/M47I/A71G IgV-Fc (Fc fusion)
chain: B23 chain with A22V, Q33L, M43V, M47I, E68V, D71G
Fold change to WT (CD28 (human)): 0.04 fold
MFI at 33.3 nM (CD28 (human)): 284 MFI
Fold change to WT CD80 (CTLA4 (human)): 0.08 fold
MFI at 33.3 nM (CTLA4 (human)): 14000 MFI
Fold change to WT (PD-L1 (human)): 9.82 fold
MFI at 33.3 nM (PD-L1 (human)): 78000 MFI

B33: CD80 variant Q33L/E35D/M43I/L85Q/R94W IgV-Fc (Fc fusion)
chain: B23 chain with A22V, Q33L, M43I, E68V, D71A, L85Q, R94W
Fold change to WT (CD28 (human)): 0.04 fold
MFI at 33.3 nM (CD28 (human)): 272 MFI
Fold change to WT CD80 (CTLA4 (human)): 0.01 fold
MFI at 33.3 nM (CTLA4 (human)): 1080 MFI
Fold change to WT (PD-L1 (human)): 3.65 fold
MFI at 33.3 nM (PD-L1 (human)): 29000 MFI
